Data published in US20210386866A1 (DEVELOPMENT CENTER FOR BIOTECHNOLOGY, published 2021).

Experiments:
[1] = target: T1, human mesothelin recombinant protein (human, UniProt Q13421 296-580, limits assumed); test: ELISA, plate coated with mesothelin 1 ug/mL, detection with anti-human kappa light chain antibody
T1 construct: also called mesothelin protein; MSLN
Protocol: (§1) 100 μL of mesothelin in a coating buffer at a concentration of 1 μg/mL was added to and coated on each well of a plate. The plates were sealed and incubated at 4° C. overnight. The wells were aspirated and washed with 300 μL of PBST (0.05% Tween 20) for 3 times. The wells were blocked by adding 200 μL of PBS-5% skim milk and incubated at 37° C. for 1 hour. The wells were aspirated and washed with 300 μL/well of PBST (0.05% Tween 20) for 3 times. 100 μL of 400 ng ADC sample diluted with PBS was added to each well, and the plates were then incubated at 37° C. for 1 hour. The wells were aspirated and washed with 300 μL of PBST (0.05% Tween 20) for 3 times. 50 μl of anti-human Kappa light chains (1:5000) was added to each well, and the plates were incubated at 37° C. for 1 hour. The wells were aspirated and washed with 300 μL/well of PBST (0.05% Tween 20) for 3 times. 100 μl of TMB was added to each well, and the plates were incubated at room temperature for 15 minutes. The color development was stopped by adding 100 μL of 1N HCl.

[2] = target: T1, human mesothelin recombinant protein; test: ELISA, plate coated with mesothelin at 1 ug/mL, detection with anti-human Kappa light chains
Protocol: as §1

[3] = target: T1, human mesothelin recombinant protein; test: SPR, Biacore T100, ADC captured on anti-human IgG-Fc CM5 chip, human mesothelin recombinant protein as analyte (3.7 to 100 nM), 1:1 Langmuir model
Protocol: (§2) The kinetic constant of the anti-mesothelin ADCs interaction against mesothelin was determined by surface plasma resonance (Biacore® T100, Biacore, Inc., Piscataway, N.J.). The flow cell of the CM5 wafer was fixed with approximately 10,000 reaction units (RU) of anti-human IgG-Fc (Biacore®) in 10 mM glycine pH 5.0 at 10 μL/min for 600 seconds. 10 μg/mL of anti-mesothelin antibody and anti-mesothelin ADCs diluted in TBS at 10 μl/min were captured on CM5 chips. Four concentrations (from 3.7 to 100 nM) of human mesothelin recombinant protein and zero concentration (flow buffer) in 100 μl/min binding were recorded in PBS containing 1 mM CaCl₂ for 3 minutes. The dissociation of the complex was measured for 10 minutes. The water surface was regenerated by injecting 3 M MgCl₂ and 3 mM EGTA at 10 μl/min for 60 seconds. The curve obtained after subtracting the reference and buffer signals was taken into the 1:1 Langmuir binding model using the Biacore® T100 evaluation software (Biacore®).

[4] = target: T1, human mesothelin recombinant protein; test: ELISA, plate coated with mesothelin protein, serial dilutions of antibody, non-linear regression
Protocol: (§3) ELISA plates were coated with 1˜2 μg/100 μl per well of mesothelin protein. Wells were rinsed for 3 times with PBS and blocked with 300 μl 5% MPBS per well for 2 hr at 37° C. After washing with PBS, wells were incubated with serial diluted mesothelin antibodies in 5% MPBS for 1.5 hours at 37° C. The plates were washed and goat polyclonal anti-human IgG-HRP antibody (1:10,000) (Jackson ImmunoResearch) was added into each well. The absorbance was measured as described above and the binding affinities of antibodies were calculated by non-linear regression with Prism software (GraphPad).

[5] = target: T1, human mesothelin recombinant protein; test: ELISA, plate coated with mesothelin protein, serial dilutions of antibody, detection with anti-human IgG-HRP
Protocol: as §3

[6] = target: T1, human mesothelin recombinant protein; test: SPR, Biacore T100, antibody captured on anti-human IgG-Fc CM5 chip, human mesothelin recombinant protein as analyte (3.7 to 100 nM), 1:1 Langmuir model
Protocol: as §2

[7] = target: T1, human mesothelin recombinant protein; test: SPR, BIAcore T200, mesothelin coupled to CM5 chip, antibody injected (0.3125 nM to 40 nM), 25 degree C, 1:1 Langmuir model
Protocol: Carboxymethylated dextran biosensor chips (CM5, Cytiva Inc.) were activated with N-ethyl-N′-(3-dimethylaminopropyl)-carbodiimide hydrochloride (EDC) and N-hydroxysuccinimide (NHS) according to the supplier's instructions. Mesothelin protein was diluted with 10 mM sodium acetate, pH 4.0, into 5 μg/ml before injection at a flow rate of 10 μL/minute to achieve approximately 1500 response units (RU) of coupled protein followed by the injection of 1M ethanolamine to block unreacted groups. For kinetics measurements, two-fold serial dilutions of anti-mesothelin mAb (0.3125 nM to 40 nM) were injected in HBS-EP+ Biacore running buffer provided by the manufacturer (Cytiva Inc.) at 25 degree C. at a flow rate of 30 μL/min, and binding responses on the mesothelin protein were corrected by subtraction of responses on a blank flow cell. Association rates (kon or ka) and dissociation rates (koff or kd) were calculated using a simple one-to-one Langmuir binding model with separate fittings of kon and koff was used. (Cytiva.™. Biacore Insight Evaluation Software).

T1 sequence (Q13421 other isoform, or with tags, fused parts or gaps limits assumed): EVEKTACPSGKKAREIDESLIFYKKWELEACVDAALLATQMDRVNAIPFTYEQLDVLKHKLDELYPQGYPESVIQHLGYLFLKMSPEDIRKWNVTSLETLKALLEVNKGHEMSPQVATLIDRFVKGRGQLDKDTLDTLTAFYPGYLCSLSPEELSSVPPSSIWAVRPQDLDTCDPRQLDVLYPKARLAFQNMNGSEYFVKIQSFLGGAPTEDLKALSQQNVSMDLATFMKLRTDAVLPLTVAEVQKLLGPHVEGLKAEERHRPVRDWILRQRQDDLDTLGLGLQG

B1: DCBPR2002-2(DBCO-vc-seco-DUBA)-2(DBCO-s-DM1) (other)
VH: QVQLVQSGAEVKKPGASVKVSCKASGYSFTGYTMNWVRQAPGQGLEWMGLITPYNGASSYNQKFRGRVTMTRDTSISTAYMELSRLRSDDTAVYYCARGGYDGRGFDYWGQGTLVTVSS
VL: EIVLTQSPATLSLSPGERATLSCSASSSVSYMHWYQQKPGQAPRLLIYDTSKLASGIPARFSGSGSGTDFTLTISSLEPEDFAVYYCQQWSKHPLTFGQGTKVEIKR
modifications: DBCO-vc-seco DUBA (2 per antibody) and DBCO-S-DM1 (2 per antibody) linked through GlcNAz to the tri-mannosyl N-glycan of the heavy chain constant region (DAR ~4)
For B1, the “EC50 (read off the curve)” value [1] was about 0.07 nM and the Kd [2] was 0.0732 nM.

B2: DCBPR2002-2(DBCO-vc-MMAE)-2(DBCO-vc-seco-DUBA) (other)
VH: B1 VH
VL: B1 VL
modifications: DBCO-vc-MMAE (2 per antibody) and DBCO-vc-seco DUBA (2 per antibody) linked through GlcNAz to the tri-mannosyl N-glycan of the heavy chain constant region (DAR ~4)
B2 gave a Kd [3] of 0.0256 nM and a Kd [2] of 0.158 nM.

B3: DCBPR2002-4(DBCO-vc-seco-DUBA) (other)
VH: B1 VH
VL: B1 VL
modifications: DBCO-vc-seco DUBA linked through GlcNAz to the tri-mannosyl N-glycan of the heavy chain constant region; 4 per antibody (DAR ~4)
B3 was tested, and the Kd [2] was 0.0975 nM.

B4: DCBPR2002-2(DBCO-vc-MMAE)-2(DBCO-s-DM1) (other)
VH: B1 VH
VL: B1 VL
modifications: DBCO-vc-MMAE (2 per antibody) and DBCO-S-DM1 (2 per antibody) linked through GlcNAz to the tri-mannosyl N-glycan of the heavy chain constant region (DAR ~4)
Binder B4 has a Kd [2] of 0.136 nM.

B5: DCBPR2002-4(DBCO-s-DM1) (other)
VH: B1 VH
VL: B1 VL
modifications: DBCO-S-DM1 linked through GlcNAz to the tri-mannosyl N-glycan of the heavy chain constant region; 4 per antibody (DAR ~4)
Binder B5 has a Kd [2] of 0.145 nM.

B6: humanized antibody HuSS1 (DCBPR2002) (antibody, V domains shown)
VH: B1 VH
VL: B1 VL
notes: also called HuSS1-HH; HuSS1 (HH)
In the case of B6, the “EC50 (read off the curve)” value [1] is reported as about 0.09 nM, the Kd [4] is reported as 0.0499 nM and the “EC50 (read off the curve)” value [5] is reported as about 0.05 nM. It also gave a Kd [6] of 0.0169 nM, a Kd [7] of 0.0025 nM and a koff [7] of 1.12e-05 s⁻¹. For the same binder, the kon [7] was 4.49e+06 M⁻¹ s⁻¹ and the Kd [2] was 0.0924 nM.

B7: DCBPR2002-4(DBCO-vc-MMAE) (other)
VH: B1 VH
VL: B1 VL
modifications: DBCO-vc-MMAE linked through GlcNAz to the tri-mannosyl N-glycan of the heavy chain constant region; 4 per antibody (DAR 3.89 by LC-MS)
Binder B7 has a Kd [3] of 0.0217 nM and a Kd [2] of 0.133 nM.

B8: humanized SS1 4D5 (HdSS1) (antibody, V domains shown)
VH: EVQLVESGGGLVQPGGSLRLSCAASGYSFTGYTMNWVRQAPGKGLEWVALITPYNGASSYNQKFRGRFTISRDDSKNTLYLQMNSLRAEDTAVYYCARGGYDGRGFDYWGQGTLVTVSS
VL: DIQMTQSPSSLSASVGDRVTITCSASSSVSYMHWYQQKPGKAPKLLIYDTSKLASGVPSRFSGSGSGTDFTLTISSLQPEDFATYYCQQWSKHPLTFGQGTKVEIKR
notes: also called HdSS1 HH; HdSS1 (HH)
Work on B8 yielded a Kd [4] of 26.1 nM.
